Data set [1] concerns the molecule itself. Briefly: cryo-EM structure; full length, non-cleaved VaPomAB reconstituted into saposin nanodiscs with E. coli polar lipids; 6.3 Å map.
Data set [2] concerns the molecule itself. Briefly: cryo-EM structure; VaPomAB (PomB PGB removed) co-expressed and co-purified, in LMNG detergent, 20 mM HEPES pH 7.5, 300 mM NaCl, 0.0125% CHAPSO added; ~2.5 Å.

Here are results for 2 proteins from paper PMC10374538, “Ion selectivity and rotor coupling of the Vibrio flagellar sodium-driven stator unit” (Nature Communications, 2023).

Broadly, the stoichiometry N is a count of units in the complex or per binding partner.

B1: Vibrio alginolyticus PomB, full length, non-cleaved (without protease insertion) (natural protein)
chain: MDDEDNKCDCPPPGLPLWMGTFADLMSLLMCFFVLLLSFSEMDVLKFKQIAGSMKFAFGVQNQLEVKDIPKGTSIIAQEFRPGRPEPTPIDVIMQQTMDITQQTLEFHEGESDRAGGTKRDEGKLTGGQSPATSTQNNESAEADMQQQQSKEMSQEMETLMESIKKALEREIEQGAIEVENLGQQIVIRMREKGAFPEGSAFLQPKFRPLVRQIAELVKDVPGIVRVSGHTDNRPLDSELYRSNWDLSSQRAVSVAQEMEKVRGFSHQRLRVRGMADTEPLLPNDSDDNRALNRRVEISIMQGEPLYSEEVPVIQ
notes: That the tag is on PomB is surmised; Only a 6.3 Å map (EMD-16214) was deposited, no model; also called full length VaPomAB
For B1, the binding result in data set [1] was “binds”.

B2: Vibrio alginolyticus PomB without the peptidoglycan binding domain (PGB removed by HRV 3C protease at a site inserted between Gln95 and Gln96) (domain or fragment)
chain: MDDEDNKCDCPPPGLPLWMGTFADLMSLLMCFFVLLLSFSEMDVLKFKQIAGSMKFAFGVQNQLEVKDIPKGTSIIAQEFRPGRPEPTPIDVIMQGTLEVLFQ
notes: PomB of Vibrio alginolyticus (ATCC 17749), from the N-terminus to Gln95 (TM helix, plug motif and what follows, up to the inserted protease site); That the twin-Strep-tag sat at the C-terminus of PomB and left with the PGB domain is surmised; also called VaPomB; VaPomAB without PomB PGB; not shown: twin-Strep-tag, C-terminal, cleaved
B2: the “stoichiometry N” value in data set [2] is 2.
